We go through 3 molecules from patent US20230365705A1 (DYNAMICURE BIOTECHNOLOGY, published 2023).

Assay [1] concerns the target T1, Human CD93 recombinant protein (Sino Biological Inc, Catalog #12589-H08H) (human, UniProt Q9NPY3 22-580).
T1 construct: Biotinylated (EZ-LINK NHS-PEG4 biotin) in the BLI assays; also called hCD93; His-tagged human CD93
T1 sequence (looked up): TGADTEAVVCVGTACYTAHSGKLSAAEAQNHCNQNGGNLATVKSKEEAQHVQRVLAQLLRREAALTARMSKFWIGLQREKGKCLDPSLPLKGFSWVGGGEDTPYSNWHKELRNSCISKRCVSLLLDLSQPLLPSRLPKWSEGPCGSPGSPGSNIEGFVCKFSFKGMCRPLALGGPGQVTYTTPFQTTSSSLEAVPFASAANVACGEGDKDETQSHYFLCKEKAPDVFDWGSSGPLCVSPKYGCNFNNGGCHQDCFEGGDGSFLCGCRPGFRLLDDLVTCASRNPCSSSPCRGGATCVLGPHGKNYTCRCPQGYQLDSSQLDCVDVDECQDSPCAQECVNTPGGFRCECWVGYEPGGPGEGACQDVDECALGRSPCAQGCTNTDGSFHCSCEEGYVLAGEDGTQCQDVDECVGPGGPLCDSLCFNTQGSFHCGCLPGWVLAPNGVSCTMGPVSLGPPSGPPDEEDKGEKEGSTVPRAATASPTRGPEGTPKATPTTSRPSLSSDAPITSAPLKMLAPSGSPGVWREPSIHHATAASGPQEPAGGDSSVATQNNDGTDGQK
The assay is described as follows: ELISA, His-tagged human CD93 coated, OD450; antibody stored 4 weeks at 40 C. The method, then:
(§1) His-tagged human CD93 was coated onto a 96 well plate at 1 μg/mL in 1×PBS overnight at 4° C. The plate was washed with ELISA wash buffer (Boston BioProduct, Inc.) and the wells were blocked with ELISA blocking buffer for 1 hour at 37° C. […] The plate was washed with ELISA wash Buffer. HRP-conjugated anti-human Fc antibody was incubated for 1 hour at 37° C. The plate was washed with ELISA wash Buffer. HRP substrate was added for indirect detection of the antibodies binding to CD93.
(An ELISA detects its analyte on a solid surface through an enzyme-linked reagent.)

For assay [2], the target named is T1, Human CD93 recombinant protein (Sino …). Description: summary table, column ELISA (hCD93).
Assay [3] addresses T2, Human CD93 on cells (human CD93 expressing CHO cells; HUVEC, U937 and KG1a cells) (human, UniProt Q9NPY3 22-652).
T2 construct: whole, on cells; also called hCD93 expressing CHO cells; hCD93 CHO cells
T2 sequence (looked up): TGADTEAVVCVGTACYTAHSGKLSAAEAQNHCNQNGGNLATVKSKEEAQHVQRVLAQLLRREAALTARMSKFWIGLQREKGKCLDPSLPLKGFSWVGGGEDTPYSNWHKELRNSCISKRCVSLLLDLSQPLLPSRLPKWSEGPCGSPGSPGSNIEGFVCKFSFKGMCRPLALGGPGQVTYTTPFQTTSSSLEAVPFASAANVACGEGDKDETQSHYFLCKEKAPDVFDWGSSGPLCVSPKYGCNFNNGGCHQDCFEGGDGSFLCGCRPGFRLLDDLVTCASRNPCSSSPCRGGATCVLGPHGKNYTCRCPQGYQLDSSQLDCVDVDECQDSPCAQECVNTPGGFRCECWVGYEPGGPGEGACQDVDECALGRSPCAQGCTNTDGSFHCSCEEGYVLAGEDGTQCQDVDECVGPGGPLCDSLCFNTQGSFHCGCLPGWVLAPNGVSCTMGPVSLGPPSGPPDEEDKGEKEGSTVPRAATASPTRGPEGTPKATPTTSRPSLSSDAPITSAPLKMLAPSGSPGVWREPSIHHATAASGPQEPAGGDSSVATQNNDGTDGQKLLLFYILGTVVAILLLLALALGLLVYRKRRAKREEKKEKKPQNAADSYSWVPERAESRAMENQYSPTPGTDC
Description: summary table, column FACS (HUVEC cells).

Assay [4] deals with T2, Human CD93 on cells (human CD93 …). The assay is described as follows: summary table, column FACS (KG1a cells); 4 weeks at 40 C. The method, then: (§2) KG1a cells were detached by incubation with TrypLE reagents (Thermo Fisher), which preserves the integrity of CD93 on the cell surface. Then the cells were incubated with serial diluted anti-CD93 antibodies for 30 minutes at 4° C. After washing by FACS buffer, the cells were incubated with Alexa Fluor 647 conjugated anti-human IgG (Jackson ImmunoResearch) for 30 minutes in 4° C. After washing by FACS buffer twice, the samples were acquired in NovoCyte Flow Cytometer and analyzed by NovoExpress software.
as §2

For assay [5] the target is unchanged. The assay is described as follows: flow cytometry titration, KG1a cells; antibody stored 2 weeks at 40 C. The method, then: as §2
Assay [6] has the same target. Description: summary table, column FACS (KG1a cells); 2 weeks at 40 C. The protocol: as §2, §2
Assay [7] has the same target. The assay is described as follows: flow cytometry titration, KG1a cells; antibody stored 4 weeks at 40 C. The protocol:
as §2

The target in assay [8] is T1, Human CD93 recombinant protein (Sino …). The assay is described as follows: ELISA, His-tagged human CD93 coated, OD450. The method, then:
as §1

The target is the same in assay [9]. Description: ELISA, His-tagged human CD93 coated, OD450; antibody stored 2 weeks at 40 C. The method, then:
as §1

The target is the same in assay [10]. The assay is described as follows: summary table, column Octet (hCD93). Background: In BLI a coated tip is dipped into the sample, and binding shifts an interference pattern.
The target in assay [11] is T2, Human CD93 on cells (human CD93 …). The assay is described as follows: summary table, column FACS (CHO-hCD93 cells).

B1: h7F3 (humanized 7F3, VH3+VL3) (antibody, human IgG1, V domains shown)
VH: QVQLVQSGAEVKKPGASVKVSCKASGYTFTDYEMHWVRQAPGQGLEWMGGIDPETGDTAYNQNFKGRVTMTTDTSTSTAYMELRSLTSDDTAVYYCTNYGNLYYYAMDYWGQGTSVTVSS
VL: EIVLTQSPSSLSASVGDRVTITCRASSSVSSSYLHWYQQKPGKAPKLLIYSTSNLAFGVPSRFSGSGSGTSYTFTISSLQPEDIATYYCQQYSGYPLTFGSGTKLEIK
notes: also called humanized 7F3-hIgG1
The term EC50 denotes the concentration needed to bring the measured effect to its halfway point. As a reminder, the Kd is the free concentration of one partner at which half of the binding sites on the other are occupied at equilibrium, for simple one-to-one binding. For the molecule B1, the EC50 in assay [1] was found to be 40.7 pM; in assay [2], 42.7 pM; in assay [3], 1340 pM; in assay [4] it was 19 pM; in assay [5], 21 pM; in assay [6], 21 pM. Besides, the EC50 turned out to be 19 pM in assay [7], 42.7 pM in assay [8] and 41.3 pM in assay [9]. Also, the Kd in assay [10] was found to be 472 pM.

B2: 16E4 (hybridoma) (antibody, IgG2a, V domains shown)
VH: QVQLQQPGAELVKPGASVKLSCKASGYTFTSYWMHWVKQRPGQGLEWIGEIDPSASYTYYNQKFKGKATLTVDKSSSTAYMQLSSLTSEDSAVYYCARSVYYGNKYFDVWGAGTTVTVSS
VL: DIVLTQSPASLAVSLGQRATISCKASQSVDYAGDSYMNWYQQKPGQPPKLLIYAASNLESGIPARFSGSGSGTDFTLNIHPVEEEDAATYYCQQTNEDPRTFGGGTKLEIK
notes: also called 16E4 mAb; 16E4 mIgG2a
With B2, the EC50 turned out to be 112 pM in assay [2], 590 pM in assay [11] and 200 pM in [3]. The Kd in [10] worked out at 334 pM.

B3: h16E4 (humanized 16E4, VH4+VL6) (antibody, V domains shown)
VH: QVQLVQSGAEVKKPGASVKVSCKASGYTFTSYWMHWVRQAPGQGLEWMGEIDPSASYTYYNQKFKGRVTMTRDKSSSTVYMELSSLTSEDSAVYYCARSVYYGNKYFDVWGAGTTVTVSS
VL: DIQMTQSPSTLSASVGDRVTITCKASQSVDYAGDSYMNWYQQKPGKAPKLLIYAASNLESGVPSRFSGSGSGTEFTLTISSLQPDDFATYYCQQTNEDPRTFGGGTKLEIK
notes: Detected with anti-human IgG, so a human Fc
B3: the EC50 in assay [1] is 51 pM; in [2], 33 pM; in [11], 388 pM; in assay [4], 115 pM; in assay [5], 113 pM; in assay [6] it was 113 pM. For the same molecule, the EC50 came to 115 pM in [7], 33 pM in [8] and 49 pM in [9]. Also, the Kd in [10] worked out at 416 pM.
